Test results published in publication PMC12632113 (Cell & Bioscience, 2025).

Target: the molecule itself
Test: native gel or EMSA

B1: polypyrimidine tract-binding protein 1 (PTBP1), wild type (natural protein)
chain: not shown
stoichiometry N: 2
